The nature of one series: cisplatin IC50 in cells. Conditions: glycan lost; control: NCI-H1299 NRF2-WT cells.
Series [1] in a line: H2O2-induced ARE luciferase activity. The settings on record: glycan lost; control: NCI-H1299 NRF2-WT cells + H2O2.
Series [2] is described as follows: NRF2 level in xenografts, IHC and WB. The settings on record: glycan lost; control: NCI-H1299 NRF2-WT xenografts.
Series [3] is described as follows: RT-PCR of NRF2 target genes in xenografts. The settings on record: glycan lost; control: NCI-H1299 NRF2-WT xenografts.
Series [4] in a line: endogenous NRF2 stability by WB, knock-in cells. Conditions: glycan lost; control: NCI-H1299 NRF2-WT cells.
Series [5] is described as follows: H2O2-induced nuclear translocation, fractionation. The settings on record: glycan lost; control: NCI-H1299 NRF2-WT cells + H2O2.
A short description of series [6]: xenograft growth under cisplatin 1.5 or 3.0 mg/kg. The settings on record: glycan lost; control: NCI-H1299 NRF2-WT xenografts + cisplatin.
The nature of series [7]: CHX chase, Flag-NRF2 remaining; NCI-H1299, HEK293T. Conditions: glycan lost; control: Flag-NRF2WT.
The nature of series [8]: WB of NRF2 after OGT KD or overexpression. The settings on record: glycan lost; control: control NCI-H1299 cells.

B1: NRF2: S103A (protein)
parent chain: MMDLELPPPGLPSQQDMDLIDILWRQDIDLGVSREVFDFSQRRKEYELEKQKKLEKERQEQLQKEQEKAFFAQLQLDEETGEFLPIQPAQHIQSETSGSANYSQVAHIPKSDALYFDDCMQLLAQTFPFVDDNEVSSATFQSLVPDIPGHIESPVFIATNQAQSPETSVAQVAPVDLDGMQQDIEQVWEELLSIPELQCLNIENDKLVETTMVPSPEAKLTEVDNYHFYSSIPSMEKEVGNCSPHFLNAFEDSFSSILSTEDPNQLTVNSLNSDATVNTDFGDEFYSAFIAEPSISNSMPSPATLSHSLSELLNGPIDVSDLSLCKAFNQNHPESTAEFNDSDSGISLNTSPSVASPEHSVESSSYGDTLLGLSDSEVEELDSAPGSVKQNGPKTPVHSSGDMVQPLSPSQGQSTHVHDAQCENTPEKELPVSPGHRKTPFTKDKHSSRLEAHLTRDELRAKALHIPFPVEKIINLPVVDFNEMMSKEQFNEAQLALIRDIRRRGKNKVAAQNCRKRKLENIVELEQDLDHLKDEKEKLLKEKGENDKSLHLLKKQLSTLYLEVFSMLRDEDGKPYSPSEYSLQQTRDGNVFLVPKSKKPDVKKN
In the case of B1, the “other: cisplatin resistance, IC50” value in “cisplatin IC50 in cells” is “decreases, 19.53 vs 31.83”. Moreover, the “other: transcriptional activity” value in [1] and in series [3] was “decreases” each time. Further, the expression_or_secretion entry in series [2] is listed as “decreases”. Further, the degradation_or_half_life result in series [4] and in [7] was “decreases” in each case. In addition, the localisation_or_trafficking result in series [5] is “decreases”. Besides, the “other: cisplatin resistance” value in series [6] is listed as “decreases”.

B2: NRF2: T350A (protein)
parent chain: MMDLELPPPGLPSQQDMDLIDILWRQDIDLGVSREVFDFSQRRKEYELEKQKKLEKERQEQLQKEQEKAFFAQLQLDEETGEFLPIQPAQHIQSETSGSANYSQVAHIPKSDALYFDDCMQLLAQTFPFVDDNEVSSATFQSLVPDIPGHIESPVFIATNQAQSPETSVAQVAPVDLDGMQQDIEQVWEELLSIPELQCLNIENDKLVETTMVPSPEAKLTEVDNYHFYSSIPSMEKEVGNCSPHFLNAFEDSFSSILSTEDPNQLTVNSLNSDATVNTDFGDEFYSAFIAEPSISNSMPSPATLSHSLSELLNGPIDVSDLSLCKAFNQNHPESTAEFNDSDSGISLNTSPSVASPEHSVESSSYGDTLLGLSDSEVEELDSAPGSVKQNGPKTPVHSSGDMVQPLSPSQGQSTHVHDAQCENTPEKELPVSPGHRKTPFTKDKHSSRLEAHLTRDELRAKALHIPFPVEKIINLPVVDFNEMMSKEQFNEAQLALIRDIRRRGKNKVAAQNCRKRKLENIVELEQDLDHLKDEKEKLLKEKGENDKSLHLLKKQLSTLYLEVFSMLRDEDGKPYSPSEYSLQQTRDGNVFLVPKSKKPDVKKN
For B2, the degradation_or_half_life entry in [7] is reported as “no change”.

B3: NRF2: OGT knockdown (protein)
parent chain: MMDLELPPPGLPSQQDMDLIDILWRQDIDLGVSREVFDFSQRRKEYELEKQKKLEKERQEQLQKEQEKAFFAQLQLDEETGEFLPIQPAQHIQSETSGSANYSQVAHIPKSDALYFDDCMQLLAQTFPFVDDNEVSSATFQSLVPDIPGHIESPVFIATNQAQSPETSVAQVAPVDLDGMQQDIEQVWEELLSIPELQCLNIENDKLVETTMVPSPEAKLTEVDNYHFYSSIPSMEKEVGNCSPHFLNAFEDSFSSILSTEDPNQLTVNSLNSDATVNTDFGDEFYSAFIAEPSISNSMPSPATLSHSLSELLNGPIDVSDLSLCKAFNQNHPESTAEFNDSDSGISLNTSPSVASPEHSVESSSYGDTLLGLSDSEVEELDSAPGSVKQNGPKTPVHSSGDMVQPLSPSQGQSTHVHDAQCENTPEKELPVSPGHRKTPFTKDKHSSRLEAHLTRDELRAKALHIPFPVEKIINLPVVDFNEMMSKEQFNEAQLALIRDIRRRGKNKVAAQNCRKRKLENIVELEQDLDHLKDEKEKLLKEKGENDKSLHLLKKQLSTLYLEVFSMLRDEDGKPYSPSEYSLQQTRDGNVFLVPKSKKPDVKKN
With B3, in [8], the expression_or_secretion result is on record as “decreases”.

B4: NRF2: S310A (protein)
parent chain: MMDLELPPPGLPSQQDMDLIDILWRQDIDLGVSREVFDFSQRRKEYELEKQKKLEKERQEQLQKEQEKAFFAQLQLDEETGEFLPIQPAQHIQSETSGSANYSQVAHIPKSDALYFDDCMQLLAQTFPFVDDNEVSSATFQSLVPDIPGHIESPVFIATNQAQSPETSVAQVAPVDLDGMQQDIEQVWEELLSIPELQCLNIENDKLVETTMVPSPEAKLTEVDNYHFYSSIPSMEKEVGNCSPHFLNAFEDSFSSILSTEDPNQLTVNSLNSDATVNTDFGDEFYSAFIAEPSISNSMPSPATLSHSLSELLNGPIDVSDLSLCKAFNQNHPESTAEFNDSDSGISLNTSPSVASPEHSVESSSYGDTLLGLSDSEVEELDSAPGSVKQNGPKTPVHSSGDMVQPLSPSQGQSTHVHDAQCENTPEKELPVSPGHRKTPFTKDKHSSRLEAHLTRDELRAKALHIPFPVEKIINLPVVDFNEMMSKEQFNEAQLALIRDIRRRGKNKVAAQNCRKRKLENIVELEQDLDHLKDEKEKLLKEKGENDKSLHLLKKQLSTLYLEVFSMLRDEDGKPYSPSEYSLQQTRDGNVFLVPKSKKPDVKKN
Regarding B4, the degradation_or_half_life result in series [7] is “no change”.

B5: NRF2: S111A (protein)
parent chain: MMDLELPPPGLPSQQDMDLIDILWRQDIDLGVSREVFDFSQRRKEYELEKQKKLEKERQEQLQKEQEKAFFAQLQLDEETGEFLPIQPAQHIQSETSGSANYSQVAHIPKSDALYFDDCMQLLAQTFPFVDDNEVSSATFQSLVPDIPGHIESPVFIATNQAQSPETSVAQVAPVDLDGMQQDIEQVWEELLSIPELQCLNIENDKLVETTMVPSPEAKLTEVDNYHFYSSIPSMEKEVGNCSPHFLNAFEDSFSSILSTEDPNQLTVNSLNSDATVNTDFGDEFYSAFIAEPSISNSMPSPATLSHSLSELLNGPIDVSDLSLCKAFNQNHPESTAEFNDSDSGISLNTSPSVASPEHSVESSSYGDTLLGLSDSEVEELDSAPGSVKQNGPKTPVHSSGDMVQPLSPSQGQSTHVHDAQCENTPEKELPVSPGHRKTPFTKDKHSSRLEAHLTRDELRAKALHIPFPVEKIINLPVVDFNEMMSKEQFNEAQLALIRDIRRRGKNKVAAQNCRKRKLENIVELEQDLDHLKDEKEKLLKEKGENDKSLHLLKKQLSTLYLEVFSMLRDEDGKPYSPSEYSLQQTRDGNVFLVPKSKKPDVKKN
For B5, in series [7], the degradation_or_half_life entry is given as “no change”.

The values are drawn from paper PMC11447106 (Clinical and Translational Medicine, 2024).
